Drawing on the supplement of paper PMC10567573, this text covers protein stability index for 94 variants.

B1: RTN1 (parent)
chain: VVAYLALAALSATISFRIYKSVLQ
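Further: lentivirally expressed fusions sorted by FACS into six bins by GFP to DsRed ratio, PSI derived from sequencing read proportions per bin multiplied by bin number.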

This data set covers variants of B1. As to the kind of experiment: protein stability index of a GFP-peptide fusion (GPS, HEK-293T) (PSI 1-6); higher = more stable. The settings on record: c terminus: a fixed tail appended.
For the variant VVAYLALAALSATISFRIYSSVLQ [K20S], the protein stability index came out at 2.68.
Take VVAYLALAALSATISFRIYPSVLQ [K20P]: the protein stability index is 2.58.
VVAYLALAALSATISFRIYESVLQ [K20E]: the protein stability index stood at 5.17.
On to VVAYLALAALSATISFRIYGSVLQ [K20G], for which the protein stability index amounted to 3.57.
Take VVAYLALAALSATISFRIYASVLQ [K20A]: the protein stability index was 3.28.
Then VVAYLALAALSATISFRIYMSVLQ [K20M], with 3.61.
As to VVAYLALAALSATISFRIYTSVLQ [K20T], the protein stability index is 3.84.
In the case of VVAYLALAALSATISFRIYWSVLQ [K20W], the protein stability index stood at 2.77.
The result for VVAYLALAALSATISFRIYHSVLQ [K20H] reads 3.98.
On to VVAYLALAALSATISFRIYNSVLQ [K20N], for which the protein stability index came out at 2.27.
On to VMAYLALAALSATISFRIYKSVLQ [V2M], for which the protein stability index was found to be 2.66.
Consider VNAYLALAALSATISFRIYKSVLQ [V2N], for which the protein stability index came out at 2.97.
The result for VRAYLALAALSATISFRIYKSVLQ [V2R] reads 3.31; that for VAAYLALAALSATISFRIYKSVLQ [V2A], 2.61.
For VYAYLALAALSATISFRIYKSVLQ [V2Y], the protein stability index turned out to be 3.
Turning to VVAYLALAALSAMISFRIYKSVLQ [T13M], the protein stability index is 1.58.
Consider VVAYLALAALSANISFRIYKSVLQ [T13N], for which the protein stability index amounted to 2.54.
Regarding VVAYLALAALSAWISFRIYKSVLQ [T13W], the protein stability index was found to be 2.05.
As for VVAYLALAALSAFISFRIYKSVLQ [T13F], the protein stability index was 2.43.
On to VVAYLALAALSAAISFRIYKSVLQ [T13A], for which the protein stability index was determined as 1.2.
The result for VVAYLALAALSAVISFRIYKSVLQ [T13V] reads 2.39; that for VVAYLALAALSAEISFRIYKSVLQ [T13E], 3.33; that for CVAYLALAALSATISFRIYKSVLQ [V1C], 1.99.
Turning to SVAYLALAALSATISFRIYKSVLQ [V1S], the protein stability index turned out to be 2.55.
For GVAYLALAALSATISFRIYKSVLQ [V1G], the protein stability index was determined as 1.96.
DVAYLALAALSATISFRIYKSVLQ [V1D]: the protein stability index was 2.2.
Turning to RVAYLALAALSATISFRIYKSVLQ [V1R], the protein stability index amounted to 2.44.
Consider AVAYLALAALSATISFRIYKSVLQ [V1A], for which the protein stability index worked out at 3.01.
Consider MVAYLALAALSATISFRIYKSVLQ [V1M], for which the protein stability index was 2.21.
VVAYLALAAKSATISFRIYKSVLQ [L10K]: the protein stability index was 2.42.
For VVAYLALAAHSATISFRIYKSVLQ [L10H], the protein stability index came out at 2.74.
For VVAYLALAACSATISFRIYKSVLQ [L10C], the protein stability index is 2.2.
The result for VVAYLALAARSATISFRIYKSVLQ [L10R] reads 1.98; that for VVAYLALAAFSATISFRIYKSVLQ [L10F], 2.31; that for VVAYLALAANSATISFRIYKSVLQ [L10N], 3.25.
Take VVAYLALAATSATISFRIYKSVLQ [L10T]: the protein stability index amounted to 2.51.
Then VVAYLALAALSATISFRIYKFVLQ [S21F], with 2.18; and VVAYLALAALSATISFRIYKWVLQ [S21W], with 2.52.
Then VVAYLALAALNATISFRIYKSVLQ [S11N], with 3.04; and VVAYLALAALHATISFRIYKSVLQ [S11H], with 2.33.
In the case of VVAYLALAALFATISFRIYKSVLQ [S11F], the protein stability index is 2.3.
The result for VVAYLALAALDATISFRIYKSVLQ [S11D] reads 3.61; that for VVAYLALAALTATISFRIYKSVLQ [S11T], 2.81.
On to VVAYLALAALWATISFRIYKSVLQ [S11W], for which the protein stability index was determined as 2.55.
For the variant VVAYLALAALSATISFNIYKSVLQ [R17N], the protein stability index came to 4.14.
As for VVAYLALAALSATISFMIYKSVLQ [R17M], the protein stability index was 2.83.
Turning to VVAYLALAALSATISFDIYKSVLQ [R17D], the protein stability index was determined as 2.83.
For the variant VVAYLALAALSATISFHIYKSVLQ [R17H], the protein stability index is 2.7.
With VVAYLDLAALSATISFRIYKSVLQ [A6D], the protein stability index came to 3.37.
Consider VVAYLGLAALSATISFRIYKSVLQ [A6G], for which the protein stability index came out at 4.25.
Regarding VVAYLQLAALSATISFRIYKSVLQ [A6Q], the protein stability index is 1.42.
VVAYLTLAALSATISFRIYKSVLQ [A6T]: the protein stability index amounted to 2.77.
Turning to VVAYLELAALSATISFRIYKSVLQ [A6E], the protein stability index is 2.6.
On to VVAYLMLAALSATISFRIYKSVLQ [A6M], for which the protein stability index was found to be 3.4.
The result for VVAYLYLAALSATISFRIYKSVLQ [A6Y] reads 2.9; that for VVAYLRLAALSATISFRIYKSVLQ [A6R], 3.2; that for VVAYLKLAALSATISFRIYKSVLQ [A6K], 2.74.
VVAYLILAALSATISFRIYKSVLQ [A6I]: the protein stability index is 1.91.
As to VVALLALAALSATISFRIYKSVLQ [Y4L], the protein stability index was determined as 2.37.
In the case of VVAQLALAALSATISFRIYKSVLQ [Y4Q], the protein stability index is 2.68.
As for VVATLALAALSATISFRIYKSVLQ [Y4T], the protein stability index is 4.26.
Regarding VVAWLALAALSATISFRIYKSVLQ [Y4W], the protein stability index stood at 1.9.
With VVANLALAALSATISFRIYKSVLQ [Y4N], the protein stability index came out at 3.01.
Consider VVAFLALAALSATISFRIYKSVLQ [Y4F], for which the protein stability index came to 2.5.
Consider VVAPLALAALSATISFRIYKSVLQ [Y4P], for which the protein stability index was 1.75.
The result for VVACLALAALSATISFRIYKSVLQ [Y4C] reads 3.23.
With VVAYLALAALSATISFRIYKSVLT [Q24T], the protein stability index worked out at 2.08.
For the variant VVAYLALAALSATISFRIYKSVLN [Q24N], the protein stability index was determined as 3.38.
With VVAYLALAALSATISFRIYKSVLY [Q24Y], the protein stability index turned out to be 3.94.
VVAYLALAALSATISFRIYKSVLC [Q24C]: the protein stability index was determined as 2.5.
As to VVAYLALAALSATISFRIYKSVKQ [L23K], the protein stability index came out at 2.66.
For the variant VVAYLALAALSATISFRIYKSVMQ [L23M], the protein stability index amounted to 3.52.
Consider VVAYLALAALSATISFRIYKSVIQ [L23I], for which the protein stability index was 3.31.
Turning to VVAYLALAALSATISFRIYKSVRQ [L23R], the protein stability index was determined as 2.55.
On to VVAYLALAALSATISFRIYKSVCQ [L23C], for which the protein stability index is 3.13.
In the case of VVAYLALAALSATISFRIYKSVEQ [L23E], the protein stability index came out at 2.65.
For the variant VVAYLALAELSATISFRIYKSVLQ [A9E], the protein stability index came to 2.85.
In the case of VVAYLALANLSATISFRIYKSVLQ [A9N], the protein stability index was found to be 3.05.
On to VVAYLALADLSATISFRIYKSVLQ [A9D], for which the protein stability index is 2.48.
In the case of VVAYLALAILSATISFRIYKSVLQ [A9I], the protein stability index was determined as 2.31.
For VVAYLALAMLSATISFRIYKSVLQ [A9M], the protein stability index was determined as 1.46.
VVAYLALAFLSATISFRIYKSVLQ [A9F]: the protein stability index turned out to be 2.86.
In the case of VVAYLALAALSATIPFRIYKSVLQ [S15P], the protein stability index stood at 2.71.
VVAYLALAALSATICFRIYKSVLQ [S15C]: the protein stability index came out at 2.23.
Then VVAYLALAALSATIAFRIYKSVLQ [S15A], with 1.01.
On to VVAYLALAALSATIHFRIYKSVLQ [S15H], for which the protein stability index is 3.38.
Take VVAYLALAALSATIMFRIYKSVLQ [S15M]: the protein stability index is 1.21.
Turning to VVAYLALAALSATISFRKYKSVLQ [I18K], the protein stability index was 4.46.
The result for VVAYLALAALSATISFRAYKSVLQ [I18A] reads 1.05.
Then VVAYLALAALSATISFRGYKSVLQ [I18G], with 2.69.
Then VVAYLALAALSATISFRNYKSVLQ [I18N], with 3.51; and VVAYLALAALSATISFRLYKSVLQ [I18L], with 1.99.
In the case of VVAYLALAALSATISFRPYKSVLQ [I18P], the protein stability index was found to be 3.69.
Take VVAYLALAALSATISFRTYKSVLQ [I18T]: the protein stability index was 1.35.
